Test results taken from patent US20240409617A1.

Molecular target: S1
Assay: BLI

With CR3022 IgG the Kd was less than 1 pM.
